This assay has as its target VEGF-A (human) (UniProt P15692). Description: cell-based or functional assay.

Sequence of VEGF-A (human) (P15692 other isoform, or with tags, fused parts or gaps limits assumed): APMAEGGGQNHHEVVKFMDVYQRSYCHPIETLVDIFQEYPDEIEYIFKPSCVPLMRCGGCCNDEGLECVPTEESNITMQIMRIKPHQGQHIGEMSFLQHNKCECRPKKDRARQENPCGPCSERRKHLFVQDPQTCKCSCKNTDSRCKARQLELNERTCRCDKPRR

The substance “positive control, VEGFR1 ECD D2 and VEGFR2 ECD D3 fused C-terminally with IgG1 Fc fragment (Fc fusion)” yielded an IC50, VEGF-dependent HUVEC cell growth assay (MTS) of 0.19 nM.
